# Measurements: publication PMC8678608, “A Novel Bispecific Antibody Targeting PD-L1 and VEGF With Combined Anti-Tumor Activities” (Frontiers in Immunology, 2021)
# B1: HB0025 (anti-PD-L1/VEGFR1D2-Ig fusion protein) (bispecific antibody, V domains shown)
# VH: QVQLVQSGAEVKKPGASVKVSCKASGYAFTGYTIHWVRQAPGQRLEWMGWFYPGSGTLKYSEKFQGRVTITRDKSLSTAYMELSSLRSEDTAVYYCARHGTGTLMAMDYWGQGTLVTVSS
# VL: DVVMTQTPLSLSVTPGQPASISCKSSQSLANSYGNTYLSWYLHKPGQSPQLLIYGISNRFSGVPDRFSGSGSGTDFTLKISRVEAEDVGVYYCLQGTHQPPTFGQGTKLEIK
# notes: soluble extracellular domain 2 of human VEGF receptor 1 (VEGFR1D2); humanized VH of the parent anti-PD-L1 antibody HB0023; human IgG1 heavy constant domains, as in the heavy chain of HB0023; IgG1-like mAb-Trap format; Clinical trial NCT04678908; also called bispecific antibody; BsAb; copies: 2 +
# B2: HB002.1T (VEGFR1D2-Ig fusion protein) (Fc fusion)
# chain: SDTGRPFVEMYSEIPEIIHMTEGRELVIPCRVTSPNITVTLKKFPLDTLIPDGKRIIWDSRKGFIISNATYKEIGLLTCEATVNGHLYKTNYLTHRQTNTIID
# modifications: Fc-dimerised fusion: D2 at the N-terminus of IgG Fc, with Fc and any linker left out. Limits are inferred from HB0025 numbering, assuming HB002.1T has the same D2. N36/N68 and the N99-T100 cleavage …
# Tests used:
# human PD-L1 [1] = molecular target: T1, human PD-L1 (Homo sapiens (Human)., UniProt Q9NZQ7); assay: SPR; as a1, but 10 nM human VEGF165 injected first to saturate VEGF binding by captured HB0025, then PD-L1 as analyte; conditions: both partners purified
# T1 construct: human PD-L1, recombinant; also called PD-L1 monomer; programmed cell death-ligand 1; source: bought: ACRO Biosystems (449-9AWF1-RA)
# T1 sequence (Q9NZQ7 19-238): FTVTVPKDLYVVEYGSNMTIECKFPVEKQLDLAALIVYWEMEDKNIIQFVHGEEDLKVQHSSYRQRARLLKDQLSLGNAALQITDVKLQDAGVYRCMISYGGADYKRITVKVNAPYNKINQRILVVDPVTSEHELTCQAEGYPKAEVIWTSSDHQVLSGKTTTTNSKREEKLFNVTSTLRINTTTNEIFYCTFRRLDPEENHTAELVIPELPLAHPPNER
# human PD-L1 [2] = molecular target: T1, human PD-L1; assay: ELISA; plates coated with recombinant human PD-L1 or VEGF165 (100 ng/well, carbonate buffer); antibody 1 h at room temperature; detected with HRP goat anti-human Fc, TMB, 450 nm; conditions: both partners purified
# human PD-L1 [3] = molecular target: T1, human PD-L1; assay: cell-based or functional assay
# human PD-L1 [4] = molecular target: T1, human PD-L1; assay: SPR; valence: HB0025 (300 RU), HB0023 (250 RU) or HB002.1T (200 RU) captured; 200 nM PD-L1 injected twice for 60 s, then 10 nM VEGF165 twice for 60 s; stoichiometric ratio from response units and molecular weights; running buffer pH 7.4; conditions: both partners purified
# human PD-L1 [5] = molecular target: T1, human PD-L1; assay: SPR; Biacore 8K, 25 °C; antibody or fusion protein captured by anti-human IgG (Fc) on a CM5 chip; analyte (VEGF165 from 3 nM or PD-L1 from 50 nM, 2-fold titrations) injected 120 s, dissociation 1800 s, 30 μL/min; single-cycle kinetics, 1:1 model; no enhancement step (buffer); conditions: both partners purified
# human VEGF165 protein [6] = molecular target: T2, human VEGF165 protein (human); assay: ELISA; plates coated with recombinant human PD-L1 or VEGF165 (100 ng/well, carbonate buffer); antibody 1 h at room temperature; detected with HRP goat anti-human Fc, TMB, 450 nm; conditions: both partners purified
# T2 construct: human VEGF-A, the 165-residue isoform VEGF165; also called VEGF dimer; source: bought: Sino Biological Inc. (11066-HNAH)
# human VEGF165 protein [7] = molecular target: T2, human VEGF165 protein; assay: SPR; Biacore 8K, 25 °C; antibody or fusion protein captured by anti-human IgG (Fc) on a CM5 chip; analyte (VEGF165 from 3 nM or PD-L1 from 50 nM, 2-fold titrations) injected 120 s, dissociation 1800 s, 30 μL/min; single-cycle kinetics, 1:1 model; no enhancement step (buffer); conditions: both partners purified
binder,measurement,setting,value
B1,Kd,human PD-L1 [1],1.98 nM
same,koff,human PD-L1 [1],0.000395 s⁻¹
same,kon,human PD-L1 [1],200000 M⁻¹ s⁻¹
same,EC50,human PD-L1 [2],0.67 nM
same,"EC50 of the recovery of IL-2 secretion in a mixed lymphocyte reaction (DCs and PBMCs, 3.8 pM-25 nM antibody); blocks PD-1/PD-L1",human PD-L1 [3],~509 pM
same,stoichiometry N,human PD-L1 [4],~1.7 PD-L1 monomers per HB0025
same,Kd,human PD-L1 [5],1.76 nM
same,koff,human PD-L1 [5],0.00051 s⁻¹
same,kon,human PD-L1 [5],290000 M⁻¹ s⁻¹
B2,EC50,human VEGF165 protein [6],0.17 nM
same,Kd,human VEGF165 protein [7],0.00111 nM
same,koff,human VEGF165 protein [7],5.03e-05 s⁻¹
same,kon,human VEGF165 protein [7],4.54e+07 M⁻¹ s⁻¹
